Results taken from paper PMC9044917 (Nature structural & molecular biology, 2022).

B1: IMPDH1(514) (enzyme)
chain: not shown
B2: IMPDH1(514)-R231P (enzyme)
chain: not shown
B3: IMPDH1(514)-T116M (enzyme)
chain: not shown
B4: IMPDH1(514)-V268I (enzyme)
chain: not shown
B5: IMPDH1(514)-R224P (enzyme)
chain: not shown
B6: IMPDH1(514)-R105W (enzyme)
chain: not shown
B7: IMPDH1(514)-N198K (enzyme)
chain: not shown
B8: IMPDH1(514)-H372P (enzyme)
chain: not shown
B9: IMPDH1(514)-D226N (enzyme)
chain: not shown
B10: IMPDH1(514)-K238E (enzyme)
chain: not shown

Molecular target: the molecule itself
Experiment: negative stain EM

Binding result, binds:
B1

Molecular target: the molecule itself
Experiment: negative stain EM
Remark: another data set of the same source

Binding result, binds:
B2
B3
B4
B5
B6
B7
B8
B9
B10
